Positions count from the first letter of the chain named.
B1: 1DFJ WI257A (protein, UniProt P10775 1-456, looked up, variant W257A)
Ribonuclease inhibitor: MNLDIHCEQLSDARWTELLPLLQQYEVVRLDDCGLTEEHCKDIGSALRANPSLTELCLRTNELGDAGVHLVLQGLQSPTCKIQKLSLQNCSLTEAGCGVLPSTLRSLPTLRELHLSDNPLGDAGLRLLCEGLLDPQCHLEKLQLEYCRLTAASCEPLASVLRATRALKELTVSNNDIGEAGARVLGQGLADSACQLETLRLENCGLTPANCKDLCGIVASQASLRELDLGSNGLGDAGIAELCPGLLSPASRLKTLALWECDITASGCRDLCRVLQAKETLKELSLAGNKLGDEGARLLCESLLQPGCQLESLWVKSCSLTAACCQHVSLMLTQNKHLLELQLSSNKLGDSGIQELCQALSQPGTTLRVLCLGDCEVTNSGCSSLASLLLANRSLRELDLSNNCVGDPGVLQLLGSLEQPGCALEQLVLYDTYWTEEVEDRLQALEGSKPGLRVIS
B2: 1DFJ YI433A (protein, UniProt P10775 1-456, looked up, variant Y433A)
Ribonuclease inhibitor: B1 Ribonuclease inhibitor with A257W, Y433A
B3: 1DFJ II455A (protein, UniProt P10775 1-456, looked up, variant I455A)
Ribonuclease inhibitor: B1 Ribonuclease inhibitor with A257W, I455A
B4: 1DFJ YI430A (protein, UniProt P10775 1-456, looked up, variant Y430A)
Ribonuclease inhibitor: B1 Ribonuclease inhibitor with A257W, Y430A
B5: 1DAN LT59A (protein, UniProt P13726 33-295, looked up, variant L59A)
Tissue factor: SGTTNTVAAYNLTWKSTNFKTILEWEPKPVNQVYTVQISTKSGDWKSKCFYTTDTECDATDEIVKDVKQTYLARVFSYPAGNVESTGSAGEPLYENSPEFTPYLETNLGQPTIQSFEQVGTKVNVTVEDERTLVRRNNTFLSLRDVFGKDLIYTLYYWKSSSSGKKTAKTNTNEFLIDVDKGENYCFSVQAVIPSRTVNRKSTDSPVECMGQEKGEFREIFYIIGAVVFVVIILVIILAISLHKCRKAGVGQSWKENSPLNVS
B6: 1DAN WT45A (protein, UniProt P13726 33-251, looked up, variant W45A)
extracellular domain: SGTTNTVAAYNLTWKSTNFKTILEWEPKPVNQVYTVQISTKSGDAKSKCFYTTDTECDLTDEIVKDVKQTYLARVFSYPAGNVESTGSAGEPLYENSPEFTPYLETNLGQPTIQSFEQVGTKVNVTVEDERTLVRRNNTFLSLRDVFGKDLIYTLYYWKSSSSGKKTAKTNTNEFLIDVDKGENYCFSVQAVIPSRTVNRKSTDSPVECMGQEKGEFRE
modifications: extracellular domain
B7: 1DAN FT50A (protein, UniProt P13726 33-251, looked up, variant F50A)
extracellular domain: B6 extracellular domain with A45W, F50A
modifications: extracellular domain
B8: 1DAN IU152A (protein, UniProt P13726 33-251, looked up, variant I152A)
extracellular domain: B6 extracellular domain with A45W, I152A
modifications: extracellular domain
B9: 1DAN LT72A (protein, UniProt P13726 33-251, looked up, variant L72A)
extracellular domain: B6 extracellular domain with A45W, L72A
modifications: extracellular domain
B10: 1DAN VT64A (protein, UniProt P13726 33-251, looked up, variant V64A)
extracellular domain: B6 extracellular domain with A45W, V64A
modifications: extracellular domain
B11: 1DAN VU207A (protein, UniProt P13726 33-251, looked up, variant V207A)
extracellular domain: B6 extracellular domain with A45W, V207A
modifications: extracellular domain
B12: 1DAN YU94A (protein, UniProt P13726 33-251, looked up, variant Y94A)
extracellular domain: B6 extracellular domain with A45W, Y94A
modifications: extracellular domain
B13: 1DAN LU133A (protein, UniProt P13726 33-251, looked up, variant L133A)
extracellular domain: B6 extracellular domain with A45W, L133A
modifications: extracellular domain
B14: 1DAN YT51A (protein, UniProt P13726 33-251, looked up, variant Y51A)
extracellular domain: B6 extracellular domain with A45W, Y51A
modifications: extracellular domain
B15: 1DAN FT76A (protein, UniProt P13726 33-251, looked up, variant F76A)
extracellular domain: B6 extracellular domain with A45W, F76A
modifications: extracellular domain
B16: 1DAN FU140A (protein, UniProt P13726 33-251, looked up, variant F140A)
extracellular domain: B6 extracellular domain with A45W, F140A
modifications: extracellular domain
B17: 1DAN VU146A (protein, UniProt P13726 33-251, looked up, variant V146A)
extracellular domain: B6 extracellular domain with A45W, V146A
modifications: extracellular domain
B18: 1DAN VU179A (protein, UniProt P13726 33-251, looked up, variant V179A)
extracellular domain: B6 extracellular domain with A45W, V179A
modifications: extracellular domain
B19: 1DAN YT78A (protein, UniProt P13726 33-251, looked up, variant Y78A)
extracellular domain: B6 extracellular domain with A45W, Y78A
modifications: extracellular domain
B20: 1DAN VU198A (protein, UniProt P13726 33-251, looked up, variant V198A)
extracellular domain: B6 extracellular domain with A45W, V198A
modifications: extracellular domain
B21: 1DAN YU157A (protein, UniProt P13726 33-251, looked up, variant Y157A)
extracellular domain: B6 extracellular domain with A45W, Y157A
modifications: extracellular domain
B22: 1IAR IA5A (protein, UniProt P05112 25-153, looked up, variant I5A)
Interleukin-4: HKCDATLQEIIKTLNSLTEQKTLCTELTVTDIFAASKNTTEKETFCRAATVLRQFYSHHEKDTRCLGATAQQFHRHKQLIRFLKRLDRNLWGLAGLNSCPVKEANQSTLENFLERLKTIMREKYSKCSS
B23: 1EMV LA33A (protein, UniProt P13479 1-86, looked up, variant L33A)
Colicin-E9 immunity protein: MELKHSISDYTEAEFLQLVTTICNADTSSEEEAVKLVTHFEEMTEHPSGSDLIYYPKEGDDDSPSGIVNTVKQWRAANGKSGFKQG
B24: 1EMV VA68A (protein, UniProt P13479 1-86, looked up, variant V68A)
Colicin-E9 immunity protein: B23 Colicin-E9 immunity protein with A33L, V68A
B25: 1EMV VA34A (protein, UniProt P13479 1-86, looked up, variant V34A)
Colicin-E9 immunity protein: B23 Colicin-E9 immunity protein with A33L, V34A
B26: 1EMV YA54A (protein, UniProt P13479 1-86, looked up, variant Y54A)
Colicin-E9 immunity protein: B23 Colicin-E9 immunity protein with A33L, Y54A
B27: 1EMV IA53A (protein, UniProt P13479 1-86, looked up, variant I53A)
Colicin-E9 immunity protein: B23 Colicin-E9 immunity protein with A33L, I53A
B28: 1EMV YA55A (protein, UniProt P13479 1-86, looked up, variant Y55A)
Colicin-E9 immunity protein: B23 Colicin-E9 immunity protein with A33L, Y55A

Test system: PPIs of the SKEMPI data set (by PDBID)
Assay: not given
Conditions: single mutation to alanine, sheet sortedByGroup, r_group FAMILYVW; ref SKEMPI; cited from earlier work

| Molecule | sk_ddG_kJ (SKEMPI experimental ΔΔG) |
| --- | --- |
| B1 | 5.56 kJ |
| B2 | 10.96 kJ |
| B3 | 1.38 kJ |
| B4 | 24.89 kJ |
| B5 | 0.00 kJ |
| B6 | 6.53 kJ |
| B7 | 1.84 kJ |
| B8 | 0.75 kJ |
| B9 | -0.25 kJ |
| B10 | 0.00 kJ |
| B11 | 6.57 kJ |
| B12 | 4.31 kJ |
| B13 | -0.08 kJ |
| B14 | -0.54 kJ |
| B15 | 4.81 kJ |
| B16 | 5.40 kJ |
| B17 | 0.84 kJ |
| B18 | 0.46 kJ |
| B19 | 2.72 kJ |
| B20 | 0.46 kJ |
| B21 | 0.00 kJ |

Same assay, conditions: single mutation to alanine; PPI given by PDBID; sheet sortedByGroup, r_group FAMILYVW; ref SKEMPI; cited from earlier work

| Molecule | sk_ddG_kJ (SKEMPI experimental ΔΔG) |
| --- | --- |
| B22 | 4.90 kJ |
| B23 | 14.31 kJ |
| B24 | 7.78 kJ |
| B25 | 10.79 kJ |
| B26 | 20.21 kJ |
| B27 | 3.56 kJ |
| B28 | 19.41 kJ |

Test system: PPIs of the SKEMPI data set (by PDBID)
Assay: SKEMPI experimental ΔΔG, single mutations to alanine
Assay type: binding
Conditions: class by ΔΔG threshold 4.184 kJ/mol; ref SKEMPI

| Molecule | sk_class (class of SKEMPI experimental ΔΔG) |
| --- | --- |
| B22 | Positive (positive (a hot residue) ΔΔG ≥ 4.184 kJ/mol) |
| B23 | Positive (positive (a hot residue) ΔΔG ≥ 4.184 kJ/mol) |
| B24 | Positive (positive (a hot residue) ΔΔG ≥ 4.184 kJ/mol) |
| B25 | Positive (positive (a hot residue) ΔΔG ≥ 4.184 kJ/mol) |
| B26 | Positive (positive (a hot residue) ΔΔG ≥ 4.184 kJ/mol) |
| B27 | Neutral (neutral (little effect) 4.184 kJ/mol < ΔΔG > −4.184 kJ/mol) |
| B28 | Positive (positive (a hot residue) ΔΔG ≥ 4.184 kJ/mol) |

Same assay, conditions: class of the SKEMPI experimental ΔΔG

| Molecule | sk_class |
| --- | --- |
| B1 | Positive (positive (a hot residue) ΔΔG ≥ 4.184 kJ/mol) |
| B2 | Positive (positive (a hot residue) ΔΔG ≥ 4.184 kJ/mol) |
| B3 | Neutral (neutral (little effect) 4.184 kJ/mol < ΔΔG > −4.184 kJ/mol) |
| B4 | Positive (positive (a hot residue) ΔΔG ≥ 4.184 kJ/mol) |
| B5 | Neutral (neutral (little effect) 4.184 kJ/mol < ΔΔG > −4.184 kJ/mol) |
| B6 | Positive (positive (a hot residue) ΔΔG ≥ 4.184 kJ/mol) |
| B7 | Neutral (neutral (little effect) 4.184 kJ/mol < ΔΔG > −4.184 kJ/mol) |
| B8 | Neutral (neutral (little effect) 4.184 kJ/mol < ΔΔG > −4.184 kJ/mol) |
| B9 | Neutral (neutral (little effect) 4.184 kJ/mol < ΔΔG > −4.184 kJ/mol) |
| B10 | Neutral (neutral (little effect) 4.184 kJ/mol < ΔΔG > −4.184 kJ/mol) |
| B11 | Positive (positive (a hot residue) ΔΔG ≥ 4.184 kJ/mol) |
| B12 | Positive (positive (a hot residue) ΔΔG ≥ 4.184 kJ/mol) |
| B13 | Neutral (neutral (little effect) 4.184 kJ/mol < ΔΔG > −4.184 kJ/mol) |
| B14 | Neutral (neutral (little effect) 4.184 kJ/mol < ΔΔG > −4.184 kJ/mol) |
| B15 | Positive (positive (a hot residue) ΔΔG ≥ 4.184 kJ/mol) |
| B16 | Positive (positive (a hot residue) ΔΔG ≥ 4.184 kJ/mol) |
| B17 | Neutral (neutral (little effect) 4.184 kJ/mol < ΔΔG > −4.184 kJ/mol) |
| B18 | Neutral (neutral (little effect) 4.184 kJ/mol < ΔΔG > −4.184 kJ/mol) |
| B19 | Neutral (neutral (little effect) 4.184 kJ/mol < ΔΔG > −4.184 kJ/mol) |
| B20 | Neutral (neutral (little effect) 4.184 kJ/mol < ΔΔG > −4.184 kJ/mol) |
| B21 | Neutral (neutral (little effect) 4.184 kJ/mol < ΔΔG > −4.184 kJ/mol) |

From publication PMC6804253, “Predicting and Experimentally Validating Hot-Spot Residues at Protein–Protein Interfaces” (ACS Chemical Biology, 2019)
